Test results: patent US20260008818A1, “CYCLIC PEPTIDE OR SALT THEREOF, AND USES THEREOF” (FUJIFILM Corporation, priority 2023, published 2026)
Bridge positions count the residues as written; N and C are the ends. Square brackets hold non-standard residues; d marks the D form. Ends that are not written are not given here. COCH2 = acetyl group that carries the bridge; hCys = N[C@@H](CCS)C(=O)O; Orn = NCCC[C@H](N)C(=O)O; Dab = NCC[C@H](N)C(=O)O; Dap = NC[C@H](N)C(=O)O

T1: Recombinant Human FGFR1 alpha (IIIc) Fc Chimera Protein, CF (R&D systems, 658-FR-050) (human, UniProt P11362 22-376)
T1 construct: bought reagent; not shown: Fc of the bought chimera
T1 sequence (looked up): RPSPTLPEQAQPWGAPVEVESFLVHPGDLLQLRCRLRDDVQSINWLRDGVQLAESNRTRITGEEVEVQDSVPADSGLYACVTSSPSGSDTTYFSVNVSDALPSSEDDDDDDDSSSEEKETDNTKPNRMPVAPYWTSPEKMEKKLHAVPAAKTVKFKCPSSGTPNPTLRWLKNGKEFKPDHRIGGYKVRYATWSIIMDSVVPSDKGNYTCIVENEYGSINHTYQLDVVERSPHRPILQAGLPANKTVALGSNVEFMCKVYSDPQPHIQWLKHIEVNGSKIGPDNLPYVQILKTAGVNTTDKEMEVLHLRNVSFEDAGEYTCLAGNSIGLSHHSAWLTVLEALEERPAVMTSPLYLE

B1: SEQ ID NO: 374 (peptide)
peptide: H[hCys]SYERLQFHGHEAPFRVKVKKK
modifications: bridge 2-19; not fully specified (residue 19, bridges); printed as H-(Hcy)-SYERLQFHGHEAPFRV-(K(acetyl))-VKKK
notes: chemically synthesized
B2: SEQ ID NO: 375 (peptide)
peptide: H[hCys]SYERLQFHGHEAPFRV[Orn]VKKK
modifications: bridge 2-19; not fully specified (residue 19, bridges); printed as H-(Hcy)-SYERLQFHGHEAPFRV-(Orn(acetyl))-VKKK
notes: chemically synthesized
B3: SEQ ID NO: 387 (peptide)
peptide: HXSYERLIFHGHEAPFWVXVKKK
modifications: not fully specified; meL (N-methyl leucine); Orn(acetyl); Hcy; thioether ring (Orn(acetyl))-(Hcy)
notes: chemically synthesized
B4: SEQ ID NO: 376 (peptide)
peptide: H[hCys]SYERLQFHGHEAPFRV[Dab]VKKK
modifications: bridge 2-19; not fully specified (residue 19, bridges); printed as H-(Hcy)-SYERLQFHGHEAPFRV-(Dab(acetyl))-VKKK
notes: chemically synthesized
B5: SEQ ID NO: 377 (peptide)
peptide: H[hCys]SYERLQFHGHEAPFRV[Dap]VKKK
modifications: bridge 2-19; not fully specified (residue 19, bridges); printed as H-(Hcy)-SYERLQFHGHEAPFRV-(Dap(acetyl))-VKKK
notes: chemically synthesized
B6: SEQ ID NO: 378 (peptide)
peptide: HKSYERLQFHGHEAPFRV[hCys]VKKK
modifications: bridge 2-19; not fully specified (residue 2, bridges); printed as H-(K(acetyl))-SYERLQFHGHEAPFRV-(Hcy)-VKKK
notes: chemically synthesized
B7: SEQ ID NO: 380 (peptide)
peptide: H[Dab]SYERLQFHGHEAPFRV[hCys]VKKK
modifications: bridge 2-19; not fully specified (residue 2, bridges); printed as H-(Dab(acetyl))-SYERLQFHGHEAPFRV-(Hcy)-VKKK
notes: chemically synthesized
B8: SEQ ID NO: 381 (peptide)
peptide: H[Dap]SYERLQFHGHEAPFRV[hCys]VKKK
modifications: bridge 2-19; not fully specified (residue 2, bridges); printed as H-(Dap(acetyl))-SYERLQFHGHEAPFRV-(Hcy)-VKKK
notes: chemically synthesized
B9: SEQ ID NO: 388 (peptide)
peptide: HXSYERXIFHGHEAPFWVXVKKK
modifications: not fully specified; Hle (homoleucine); Orn(acetyl); Hcy; thioether ring (Orn(acetyl))-(Hcy)
notes: chemically synthesized

How the values were obtained:
[1] = test system: Recombinant Human FGFR1 alpha (IIIc) Fc Chimera Protein; test: Binding affinity of enzymatically synthesized cyclic peptide to FGFR by ELISA; conditions: luminescence signal at reaction concentration 10 nmol/L, SEQ ID NO: 39 standardized to 1, enzyme synthesis product
Summary of the method: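 Graded A–D from luminescence at 10 nmol/L peptide, expressed relative to SEQ ID NO: 39 after subtracting wells lacking receptor. Read-out used anti-Myc antibody (2 h, RT) with chemiluminescent substrate, following 3 h RT binding of peptide to immobilized FGFR1α(IIIc)-Fc, 5 ng per well.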

[2] = Molecular stability of cyclic peptide after reducing agent (DTT) treatment, LC; format: physicochemical; conditions: residual rate after 12.6 mmol/L DTT aqueous solution, room temperature, 1 hour
Protocol: The molecular stability of the cyclic peptide was evaluated by analyzing an aqueous solution of the cyclic peptide treated with a reducing agent by liquid chromatography (LC).
The reducing agent treatment was performed under the following conditions based on the concentration of glutathione contained in the cells. 25 μL of a 0.2 mg/mL cyclic peptide aqueous solution was prepared, 58.8 μL of a 12.6 mmol/L DTT aqueous solution was added to the aqueous solution, and the mixture was incubated at room temperature for 1 hour to obtain an aqueous solution of the cyclic peptide treated with a reducing agent. The DTT aqueous solution was used by diluting a 1 mol/L (+-)-dithiothreitol (DTT) solution (FUJIFILM Wako Pure Chemical Corporation, 044-33871) with water. The total area of all the peaks in LC/MS of the cyclic peptide before the reducing agent treatment was set to 100%, and the proportion of the total area of all the peaks in LC/MS of the aqueous solution of the cyclic peptide treated with the reducing agent was determined to calculate the residual rate of the cyclic peptide, and the molecular stability was evaluated according to the following evaluation criteria. The evaluation result preferably satisfies the evaluation criteria A, B, or C.
• A: The residual rate of cyclic peptide is 90% or more. • B: The residual rate of the cyclic peptide is 70% or more and less than 90% • C: The residual rate of the cyclic peptide is 50% or more and less than 70% • D: The residual rate of the cyclic peptide is less than 50%
The LC used for the evaluation of molecular stability was set to the following conditions. • LC device: Prominence series (pump, column oven, autosampler, detector) (manufactured by Shimadzu Corporation) • Detector: photodiode array detector (SPD-M20A), measurement wavelength of 280 nm • Column: TSKgel ODS-100V, inner diameter of 4.6 mm×length of 150 mm, particle diameter of 5 μm (manufactured by Tosoh Corporation) • Eluent A: solution containing 0.1% trifluoroacetic acid as solute, and solvent is 100% water • Eluent B: solution containing 0.1% trifluoroacetic acid as solute, and solvent is 100% acetonitrile • Flow rate: 1.0 mL/min • Injection amount: 25 μL • Gradient: 20% to 50%: Eluent B (0 to 15 minutes), 100%: Eluent B (15 minutes) • Column temperature: 40° C.

[3] = target: T1, Recombinant Human FGFR1 alpha (IIIc) Fc …; test: SPR, FGFR1-Fc immobilized, 10 nmol/L peptide
Protocol: A CM5 sensor chip (Cytiva, 29149603) was set in Biacore-T200 (manufactured by Cytiva) which is a surface plasmon resonance device, and an HBS-EP buffer (Cytiva, BR100826) was added as a running buffer at a flow rate of 10 μL/min to equilibrate the flow channel. Next, 70 μL of a mixed aqueous solution of 0.2 mol/L 1-(3-dimethylaminopropyl)-3-ethylcarbodiimide (EDC) and 0.05 mol/L N-hydroxysuccinimide (NHS) was added to activate the sensor chip. Then, Recombinant Human FGFR 1 alpha (IIIc) Fc Chimera Protein CF (R&D systems, 658-FR-050) prepared at 50 nmol/L in an Acetate 4.5 buffer (Cytiva, BR100350) was added thereto to perform immobilization at about 5000 RU. Thereafter, the blocking treatment was performed with an ethanolamine solution. In addition, in another flow channel of the same sensor chip, blocking treatment was performed immediately after activation without immobilizing FGFR.
A cyclic peptide diluted to 10 nmol/L using HBS-EP was added to each flow channel of the FGFR-immobilized sensor chip produced above at 25° C. for 10 minutes, then HBS-EP was allowed to flow as a running buffer for 30 minutes, and the binding of the cyclic peptide to FGFR was measured. Thereafter, a regeneration treatment of removing the bound cyclic peptide was performed by repeating the flow of a regeneration liquid in which sodium chloride powder was dissolved in Glysine 1.5 (Cytiva, BR100354) to a final concentration of 0.15 mol/L for 1 minute in each flow channel twice. The binding amount of the cyclic peptide was evaluated from the difference between the measured value of Biacore-T200 in the flow channel in which FGFR was immobilized and the measured value of Biacore-T200 in the flow channel in which FGFR was not immobilated, in a case where a 10 nmol/L cyclic peptide was allowed to flow.

Molecule	Evaluation result of binding affinity to FGFR [1]	binding amount (SPR, cyclic peptide molecules bound per one molecule of FGFR at 10 nmol/L peptide) [3]	also measured
365 (NCWGYTYIIPFNYISK(COCH2)T; thioether 2-16) [compound 365]	B (0.5 or more and less than 0.7)		
366 (HCQFNIHPWGAPFLVK(COCH2)E; thioether 2-16) [compound 366]	C (0.1 or more and less than 0.5)		
367 (WCRTWLWFEIPFWYQK(COCH2)E; thioether 2-16) [compound 367]	C (0.1 or more and less than 0.5)		
368 (ECKVHLHPWGAPFWIK(COCH2)S; thioether 2-16) [compound 368]	C (0.1 or more and less than 0.5)		
369 (HASYERCIFHGHEAPFWVK(COCH2)V; thioether 7-19) [compound 369]	C (0.1 or more and less than 0.5)		
370 (CYERLIFHGHEAPFWVK(COCH2)V; thioether 1-17) [compound 370]	A (0.7 or more)		
371 (CERLIFHGHEAPFWVK(COCH2)V; thioether 1-16) [compound 371]	A (0.7 or more)		
372 (CRLIFHGHEAPFWVK(COCH2)V; thioether 1-15) [compound 372]	C (0.1 or more and less than 0.5)		
373 (CERLIFHGHEAPFWVK(COCH2); thioether 1-16) [compound 373]	A (0.7 or more)		
383 (HCSYERLQFHGHEAPFRVCVKKK; disulfide 2-19) [compound 383]			Evaluation result of reductive stability [2]: D (The residual rate of the cyclic peptide is less than 50%)
B1		≥ 0.7 moleculesofthecyclicpeptide/onemoleculeoffgfr	
B2		≥ 0.7 moleculesofthecyclicpeptide/onemoleculeoffgfr	
HXSYERLIFHGHEAPFWVXVKKK (not fully specified; Orn(acetyl); Hcy; thioether ring (Orn(acetyl))-(Hcy), chemically synthesized) [SEQ ID NO: 384]		≥ 0.7 moleculesofthecyclicpeptide/onemoleculeoffgfr	
B3		≥ 0.7 moleculesofthecyclicpeptide/onemoleculeoffgfr	
B4		≥ 0.7 moleculesofthecyclicpeptide/onemoleculeoffgfr	
B5		≥ 0.7 moleculesofthecyclicpeptide/onemoleculeoffgfr	
B6		≥ 0.7 moleculesofthecyclicpeptide/onemoleculeoffgfr	
HXSYERLQFHGHEAPFRVXVKKK (not fully specified; Orn(acetyl); Hcy; thioether ring (Orn(acetyl))-(Hcy), chemically synthesized) [SEQ ID NO: 379]		≥ 0.7 moleculesofthecyclicpeptide/onemoleculeoffgfr	
B7		≥ 0.7 moleculesofthecyclicpeptide/onemoleculeoffgfr	
B8		≥ 0.7 moleculesofthecyclicpeptide/onemoleculeoffgfr	
XSYERLIFHGHEAPFWVXKKK (not fully specified; Orn(acetyl); Hcy; thioether ring (Orn(acetyl))-(Hcy), chemically synthesized) [SEQ ID NO: 385]		0.1 to 0.5 moleculesofthecyclicpeptide/onemoleculeoffgfr	
Ac-HASYERLIFHGHEAPFWVCVKKK (bridge N-19; not fully specified; printed as (Ac)-HASYERLIFHGHEAPFWV-(C)-VKKK, chemically synthesized) [SEQ ID NO: 386]		0.5 to 0.7 moleculesofthecyclicpeptide/onemoleculeoffgfr	
B9		≥ 0.7 moleculesofthecyclicpeptide/onemoleculeoffgfr	
HXSYERLIFHGHEAPFWVXKKK (not fully specified; Orn(acetyl); Hcy; thioether ring (Orn(acetyl))-(Hcy), chemically synthesized) [SEQ ID NO: 389]		≥ 0.7 moleculesofthecyclicpeptide/onemoleculeoffgfr	
XSYERLIFHGHEAPFWVXVKKK (not fully specified; Orn(acetyl); Hcy; thioether ring (Orn(acetyl))-(Hcy), chemically synthesized) [SEQ ID NO: 390]		0.1 to 0.5 moleculesofthecyclicpeptide/onemoleculeoffgfr	
